Measured values taken from the supplement of paper PMC12042874.
± gives the uncertainty stated by the source.

Experiment: amyloid nucleation score (Sup35N fusion, yeast selection) (log enrichment); library NNK2; higher = more nucleation; inactive = no reads after selection
How it was run: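 Output and input plasmid inserts were sequenced by Illumina after psi-negative yeast carrying Sup35N fused to peptides of 20 random codons had been induced 24 hours with 100 μM copper sulfate and grown 7 days at 30°C on medium lacking adenine and uracil. The nucleation score is the DiMSum log enrichment of output over input reads, centred on the mode score of non-aggregating sequences. Sequences with under 100 input reads were excluded.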

| Substance | amyloid nucleation score |
| --- | --- |
| NVRDSYVNNCMTKGPRLNGV | -0.686 ± 0.34 |
| RPKYCQVVAGLVNYGVRLVV | -0.262 ± 0.49 |
| FFSVPGAWCDKWALALANY | -0.564 ± 0.38 |
| CYGLYPEDLLCMYGKLDLPR | 0.229 ± 0.61 |
| ETVDSESFSGCGIVFLRGSN | -0.908 ± 0.78 |
| YRSSHYYQQSIIVFVIMHRC | 2.11 ± 0.3 |
| SHGWGTAAVWNIAVCRRSLG | 0.129 ± 0.39 |
| NQNVSLGVTMCFNSNYDRQG | 7.53 ± 0.081 |
| IDFVVIKTLGMCDITYLYM | -0.573 ± 1.1 |
| KVRDCDIMAPNIMVRSLNRS | 1.73 ± 0.16 |
| LSSHVCGGM | 4.8 ± 0.054 |
| RMYLRSIVKSLMAWQRLGRI | -0.545 ± 0.55 |
| FCGISSR | -0.411 ± 0.56 |
| TLGLLDHWSLREWDTTGWVE | 0.691 ± 0.37 |
| WGLHYSRYHLHV | -0.494 ± 0.27 |
| QFSSLVFAEEKMNPRMCMVR | -0.294 ± 0.2 |
| SPYRLSPTQTLSFCFIRHLP | inactive |
| YNASVDVLHY | -0.146 ± 1 |
| LRYIFKMS | -1.34 ± 0.49 |
| RVRWYSCLVFMISTGFAFL | -0.702 ± 0.76 |
| NLVTFVWKRYLINIISVTKD | -1.51 ± 1.1 |
| NWPETT | 2.48 ± 0.19 |
| MTSLGVPNAYCEGNGAWYHR | 0.321 ± 0.21 |
| FLITCQLESTLYQW | -0.334 ± 0.64 |
| NYSIFDWTCSSKMSIITCAK | 5.697 ± 0.029 |

| Substance | amyloid nucleation score |
| --- | --- |
| LKYVLARCFRKCWYVLWTSA | -0.451 ± 0.54 |
| SFKLGSHVSDKKIGMDLCFT | -0.361 ± 0.4 |
| HLIAFLSAYFYYVMLARMYF | -1.87 ± 1.1 |
| SHVTGR | 0.602 ± 0.34 |
| SIVSHKVITISMFVI | 4.5 ± 0.077 |
| RFPLGCKMSVTGPFHMTHHA | 1.29 ± 0.38 |
| KIERC | -0.077 ± 0.63 |
| KSSDGPKAQV | 1.13 ± 0.16 |
| SVLHPLTSKWNGKKWV | inactive |
| VRDDCARWK | 0.327 ± 0.45 |
| ILVSFYRDSS | 0.416 ± 0.44 |
| QFEVNNLTPIGEEGGPKDCP | 0.759 ± 0.43 |
| SLGALNKFPRILIVVRYRVC | inactive |
| LCMKYGVCVYVLFGWCKYTV | -0.068 ± 0.79 |
| SQMYGLAYVCRQ | 6.28 ± 0.076 |
| KRLTPS | 0.155 ± 1.1 |
| KDNLDQYFTERRGWWLCEVV | -0.043 ± 0.5 |
| VLVEGVQCYSENRTNT | 1.49 ± 0.41 |
| GFIGNCYSFASLFGPMSHYV | -0.588 ± 1.1 |
| LNNNGASNGFTTYSALNVG | -0.59 ± 0.28 |
| SRRGDRSRWCEMVMDVKVCS | 5.208 ± 0.041 |
| FDGLHVYQCWTPVNIARVEE | 0.099 ± 0.62 |
| HTFYVNKLPLPKL | 0.875 ± 0.45 |
| MSLSLQKYFLWRPGRAPVVR | -0.03 ± 0.63 |
| LFNSAVLK | -0.092 ± 0.33 |

| Substance | amyloid nucleation score |
| --- | --- |
| HMTSS | -0.495 ± 0.33 |
| LIPIRALRHYFRFIVCV | -0.142 ± 0.61 |
| SKQCSKILTIKRMISLTGNE | -0.542 ± 0.49 |
| RGTNQSSVSMRGAL | 0.523 ± 0.36 |
| YSFELGDFRMEKLIRDMVKC | -0.932 ± 0.42 |
| KRSVVKNLG | 0.157 ± 0.29 |
| YTSSRGHYSIMGVIRMCDRL | 0.118 ± 0.25 |
| RVMGCVMGIRGWRIRIGNSG | 1.42 ± 0.47 |
| SILDVCVSVT | -0.641 ± 0.55 |
| LCWMRFLDSCEEVHKSIHVF | 0.38 ± 0.39 |
| SCMCMEICINWNFRCIDGRG | 6.66 ± 0.078 |
| LFNGTMY | inactive |
| RLKAPLPYDEIFQLFVIGEI | 0.698 ± 0.8 |
| LNYTRCQGSTKVDHSLGNLM | -0.482 ± 0.31 |
| CFANRNRFFMSLSEHHTFDG | -0.798 ± 1.1 |
| EIWRFLQHRGIYYFFWSFEK | inactive |
| EDWNPSTMFVRFWYNSACWY | 0.204 ± 0.6 |
| SVKQLTPD | -0.319 ± 0.6 |
| WLCVRNVLMCQW | 7.037 ± 0.042 |
| FEVDVA | inactive |
| EKFYLDLG | -0.006 ± 0.54 |
| TMGTSSLVSAQLICRGTLAK | 0.172 ± 0.62 |
| ISVYLSRSIFI | -0.326 ± 1 |
| GIKDI | -1.05 ± 0.79 |
| FRKWNSS | 4.08 ± 0.072 |

| Substance | amyloid nucleation score |
| --- | --- |
| VHDQIPE | 0.071 ± 0.79 |
| LNWGSNIQAGVHTSRPWGSY | 0.248 ± 0.43 |
| NSASLFFS | 0.27 ± 0.17 |
| RISRFMPCSRS | 1.11 ± 0.52 |
| IQDLRFNITVTMPLESVSFM | 7.046 ± 0.058 |
| DSISFNPYRMLRDNYLLHVC | 1.9 ± 0.13 |
| WLLMYPLI | -1.04 ± 0.34 |
| ITIRCGSKDSFMNIGLGKMG | 4.09 ± 0.11 |
| HNLWCDISLFGHIYRGRGTM | 7.21 ± 0.08 |
| IFCWRVSCEQRVFYLIESGR | -0.388 ± 0.24 |
| GLVGPSI | -0.29 ± 0.48 |
| TSRLHNFATRIIVCYRLLMQ | -0.525 ± 1.1 |
| IWYCRK | -1.11 ± 0.44 |
| FSAYLLLLYKN | -0.738 ± 0.76 |
| FIAFVYNL | 1.95 ± 0.091 |
| RDLARTMI | 1.67 ± 0.34 |
| SGRRLRGSKVSGWR | -1.12 ± 0.76 |
| LLEFTLLTISQRPYTWNTVE | 0.862 ± 0.17 |
| YLYGCGNMVVIWRSGRQMDI | -1.42 ± 0.49 |
| YYQYGWEYARLWLIDNILHG | -0.064 ± 1.1 |
| DPNLGLSTW | 0.47 ± 0.34 |
| SSTFPPF | -0.691 ± 0.41 |
| GLLIGSDDLLASVICVITCS | -1.15 ± 1.1 |
| FYYSLTMRLD | -0.322 ± 0.42 |
| GFVGF | 2.68 ± 0.17 |

| Substance | amyloid nucleation score |
| --- | --- |
| WRPKPKWFLGGYGWTGERRL | 0.418 ± 0.51 |
| FSNISSSMKNKSVRGCECGR | -1.04 ± 0.33 |
| NRNHMCRSCYMGWFRGRAKA | -1.04 ± 0.42 |
| NCPRWICAILYEYHAVRRRV | 0.713 ± 0.49 |
| IYSGETYKTWLFHGINV | -1.4 ± 0.62 |
| FRKEEADYHGYRLYSVAVNA | -0.214 ± 0.36 |
| HAMPVYRAEFTLISTIL | 0.268 ± 0.32 |
| VAMVVRGTLYPALCPTYWVS | 2.25 ± 0.11 |
| RTPTRILQAMLFYSRDHYSI | 0.218 ± 0.8 |
| NVIRHLPPSYWRSLHSQMFP | inactive |
| DCHEGRTNPRALKCFTEERG | 0.173 ± 1.1 |
| AYDRIY | 0.367 ± 0.74 |
| MDKFFFSFTYGGLSQPDQGV | -1.35 ± 1.1 |
| KDLRWVLRWC | 0.912 ± 0.26 |
| IYFPP | -0.689 ± 0.4 |
| CGVFSLQCYHVDESTRCREF | 6.401 ± 0.061 |
| RLHRTILHVSRTGQFGAHQC | 0.989 ± 0.35 |
| VEFNNAFNNCSLLFSDPRSS | 3.34 ± 0.12 |
| VYCIVRMYIALWCYVLDYVE | 0.34 ± 0.36 |
| SLMCIIFLQYWNLLLTIRVT | inactive |
| MSIEKCICLICSINMEVVGF | 6.821 ± 0.059 |
| SAVSPVSVADR | -0.656 ± 1.1 |
| SFIPRLYLV | -0.016 ± 0.53 |
| PDPLWGRPFYIWIMELGSRK | 2.32 ± 0.13 |
| DWSVKCGVMERI | -0.295 ± 0.4 |

| Substance | amyloid nucleation score |
| --- | --- |
| ENSFLVRKTSH | -0.262 ± 0.36 |
| MPVHSQSRMVRRRVDKTI | -0.632 ± 0.76 |
| ENLYGFWYLTRCRMF | -0.096 ± 0.39 |
| LFIEGNVSWGYACLHIRSVG | 0.039 ± 0.79 |
| GAMDLHQWASMMNMFPAMCV | 0.731 ± 0.47 |
| VHRTEVRLLSQGTRYVSCNS | 2.06 ± 0.3 |
| QPAVQGITRRKVCWVIMQNA | 0.336 ± 0.46 |
| GITPRKDFFYYTLVDTCLVL | -0.198 ± 0.46 |
| RFFGLAKMRMLVKCQ | 0.043 ± 0.65 |
| RVYIFTCYGSSV | 7.997 ± 0.074 |
| NNVPCRSIADVYALEFLYAS | inactive |
| LIERDNTWRATSRCITIESG | 1.17 ± 0.45 |
| DCLICFKDICNFENNEMIGA | -0.556 ± 0.2 |
| RCDLWLSYCQPLNVFLYWLV | 0.313 ± 0.65 |
| GPMRGC | -0.548 ± 1.1 |
| ALSSNPVLSCKLC | 6.917 ± 0.027 |
| YFFFIVLDLYLMSCFGVVCE | -1.13 ± 0.76 |
| ERSVDYSLTL | -0.43 ± 0.45 |
| DQKTMTTVL | 0.368 ± 0.45 |
| VSKMGYRDALVAREGLCGVV | 0.072 ± 0.38 |
| CKLHRVYAIFFSMD | inactive |
| PMMYQRLCIMFFCSTITLMI | 1.92 ± 0.14 |
| MRLLVHSWDIESSFNVRMGQ | 3.42 ± 0.058 |
| ALIYCVFSFPFEAYDYMRFR | inactive |
| TGYLVWFG | 0.951 ± 0.3 |

| Substance | amyloid nucleation score |
| --- | --- |
| LAWLCRWGSVTYYCYSFGQV | -0.841 ± 0.62 |
| PSTIGQYITR | -0.119 ± 0.49 |
| VVGSFFCQNMKHLYRELRQS | inactive |
| TTDLYEMLWTFWSINRNSKS | -0.071 ± 0.61 |
| KDHSMSELYGGICVRCYKLI | -0.378 ± 1 |
| LARACKIEAYFLLVHVSIMC | -0.174 ± 0.76 |
| WCVRELLE | -0.077 ± 0.39 |
| IMTMTGNVDNIAVIRRS | -0.519 ± 1 |
| RICVRCPSYYTMWLWCLRFL | inactive |
| VICFAMSMILR | 3.38 ± 0.13 |
| TLVCWCLIFNVDKPFCVLML | inactive |
| RKNSWDISHPAGTCNIRFIL | 0.339 ± 0.61 |
| WFKVH | 0.26 ± 0.8 |
| AYLFHLFIIS | -0.017 ± 0.48 |
| GATRALRSVTRR | 3.26 ± 0.13 |
| SSVEAELICLWKFCTTHVCT | 0.168 ± 0.56 |
| CTEFSLTDCSSG | inactive |
| FRRQSPNMQPSCWTDHGLRG | -0.105 ± 1.1 |
| NGGAVFCVHACYGFRGRYER | 5.05 ± 0.045 |
| VLDSAYCAFVYFFIVVIWWF | -0.595 ± 0.61 |
| AISPVLC | 1.9 ± 0.43 |
| VDLCDFCKLVASMVEDGSRE | inactive |
| CLCGPRIGLSVFNYVYFGMG | 4.2 ± 0.046 |
| VEAWGP | -0.948 ± 0.45 |
| LWVVQTVDHTSKSSSVWSSL | 4.16 ± 0.078 |
